Test results: patent publication US20110184152A1

Experiments:
[1] = molecular target: human serum albumin (human) (UniProt P02768); experiment: SPR (BIAcore)
[2] = molecular target: mouse serum albumin (mouse) (UniProt P07724); experiment: SPR (Biacore), purified construct

Kd [1]	koff [1]	kon [1]	Kd [2]	Binder
51.6 nM	0.0186 s⁻¹	360000 M⁻¹ s⁻¹	–	FabB-645dsFv (S3×G4S), Fv heavy mutation T100aA (bispecific antibody, part only; not given: anti-OX40 Fab and linkers, V domains shown, not shown: another chain or arm of the molecule; small tags and cut ends, Interchain disulfide between VH Cys44 and VL Cys100 (Kabat) of the dsFv) VH: EVQLLESGGGLVQPGGSLRLSCAVSGIDLSNYAINWVRQAPGKCLEWIGIIWASGTTFYATWAKGRFTISRDSTTVYLQMNSLRAEDTAVYYCARTVPGYSAAPYFDLWGQGTLVTVSS VL: DIVMTQSPSSVSASVGDRVTITCQSSPSVWSNFLSWYQQKPGKAPKLLIYEASKLTSGVPSRFKGSGSGTDFTLTISSLQPEDFATYYCGGGYSSISDTTFGCGTKVEIK
–	–	–	59.6 nM	FabB-648dsFv (2xG4S) (bispecific antibody, part only; not given: anti-OX40 Fab and linkers, V domains shown, not shown: another chain or arm of the molecule; a dimerising Fc or GST; small tags and cut ends, Engineered interchain disulphide between VH Cys44 and VL Cys100 (Kabat; linear position 103 of the VL).) VH: EVQLVESGGGLVQPGGSLRLSCAVSGFSLSRYAMTWVRQAPGKCLEWIGTITTGGNTNYANWAKGRFTISKDSTTVYLQMNSLRAEDTAVYYCARGGYVSYADATELSLWGQGTLVTVSS VL: DIVMTQSPSTLSASVGDRVTITCQASQSIGSRLAWYQQKPGKAPKLLIYYASTVASGVPSRFKGSGSGTEFTLTISSLQPDDFATYYCQSYDYSSSSSYAFGCGTKVEIK
